Data published in patent US20190359687A1 (Bayer, published 2019).

Columns and labels:
[1] = target: T1, Cynomolgus monkey glycophorin A on Cynomolgus monkey red blood cells (Cynomolgus monkey); assay: partition to Cyno RBC, human HemA plasma, 30 min;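 also: FVIII fusion spiked at 1 IU/mL into RBC suspension at whole-blood density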
T1 construct: whole, on cells; also called Cyno GPA; Cyno RBC

[2] = target: T2, human glycophorin A on human red blood cells (human, UniProt P02724 20-150); assay: partition to human RBC, human HemA plasma, 120 min
T2 construct: whole, on cells; also called human GPA; huGPA
T2 sequence (looked up): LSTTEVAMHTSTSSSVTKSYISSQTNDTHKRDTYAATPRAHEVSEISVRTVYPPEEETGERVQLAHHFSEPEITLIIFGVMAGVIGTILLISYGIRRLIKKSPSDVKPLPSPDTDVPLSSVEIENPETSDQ

[3] = target: T1, Cynomolgus monkey glycophorin A on …; assay: partition to Cyno RBC, human HemA plasma, 1 min;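 also: FVIII fusion spiked at 1 IU/mL into RBC suspension at whole-blood density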
Procedure: (§1) To evaluate partition to cynomolgus monkey or human red blood cells, whole blood was draw from Cynomolgus monkey or normal human volunteers in to anticoagulant with 4% sodium citrate (Sigma, St Louis, Mo.). The red blood cells were purified by layering the whole blood on to ficoll followed by low speed centrifugation. The supernatant containing plasma, platelets and white blood cells was discarded and the red blood cell pellet was resuspended in 10 pellet volumes of PBS (50 mM Phosphate buffer, pH7.4, 150 mM NaCl). The red blood cells were then pelleted by slow speed centrifugation and the red blood cells re-suspended in 10 volumes of PBS. This washing step was repeated 4 more times and the red blood cells finally resuspended in a volume of plasma from Hemophilia patients with less than 1% of normal levels of FVIII (GeorgeKing Bio-Medical, Overland Park, Kans.) to generate a total volume equal to the initial blood volume such that the RBC density was equal to that of normal whole blood. BDD and RBC targeted FVIII molecules were then spiked into RBC suspension in HemA plasma at 1 IU/mL, and incubated at room temperature for 2-3 hours with gentle rotation. […] An additional control was performed in which BDD or RBC targeted FVIII molecules were added at 11U/ml into the same human hemophilia A plasma and incubated for 5 minutes and 180 mins. These samples were used to determine the input FVIII activity in the presence of plasma which was used to calculate the percentage of the molecule that was bound to RBC. All plasma samples were then assayed together for FVIII activity using the Coatest SP assay (DiaPharma, Columbus, Ohio). The assay was performed following the manufacturer's instructions in a 96-well plate format. […] The plate was incubated at 37° C. for 10 minutes with shaking between each reagent addition.

[4] = target: T2, human glycophorin A on human red blood …; assay: partition to human RBC, human HemA plasma, 120 min; remark: listed apart in the source
Procedure: (§2) The supernatant containing plasma, platelets and white blood cells was discarded and the red blood cell pellet was resuspended in 10 pellet volumes of PBS (50 mM Phosphate buffer, pH7.4, 150 mM NaCl). The red blood cells were then pelleted by slow speed centrifugation and the red blood cells re-suspended in 10 volumes of PBS. This washing step was repeated 4 more times and the red blood cells finally resuspended in a volume of plasma from Hemophilia patients with less than 1% of normal levels of FVIII (GeorgeKing Bio-Medical, Overland Park, Kans.) to generate a total volume equal to the initial blood volume such that the RBC density was equal to that of normal whole blood. BDD and RBC targeted FVIII molecules were then spiked into RBC suspension in HemA plasma at 1 IU/mL, and incubated at room temperature for 2-3 hours with gentle rotation. […] An additional control was performed in which BDD or RBC targeted FVIII molecules were added at 11U/ml into the same human hemophilia A plasma and incubated for 5 minutes and 180 mins. These samples were used to determine the input FVIII activity in the presence of plasma which was used to calculate the percentage of the molecule that was bound to RBC. All plasma samples were then assayed together for FVIII activity using the Coatest SP assay (DiaPharma, Columbus, Ohio). The assay was performed following the manufacturer's instructions in a 96-well plate format. […] The plate was incubated at 37° C. for 10 minutes with shaking between each reagent addition. […] The amount of FVIII activity in the plasma reflects the amount of unbound FVIII. The FVIII activity of the same molecule spiked in to Hemophilia A plasma alone (no RBC) and incubated for 5 minutes was normalized to 100%.

[5] = target: T1, Cynomolgus monkey glycophorin A on …; assay: partition to Cyno RBC, human HemA plasma, 60 min;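 also: FVIII fusion spiked at 1 IU/mL into RBC suspension at whole-blood density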
Procedure: as §1

[6] = target: T2, human glycophorin A on human red blood …; assay: partition to human RBC, human HemA plasma, 5 min
Procedure: as §2

[7] = target: T2, human glycophorin A on human red blood …; assay: partition to human RBC, human HemA plasma, 15 min
Procedure: as §2

[8] = target: T2, human glycophorin A on human red blood …; assay: partition to human RBC, human HemA plasma, 1 min
[9] = target: T1, Cynomolgus monkey glycophorin A on …; assay: partition to Cyno RBC, human HemA plasma, 5 min;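 also: FVIII fusion spiked at 1 IU/mL into RBC suspension at whole-blood density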
[10] = target: T2, human glycophorin A on human red blood …; assay: partition to human RBC, human HemA plasma, 60 min
[11] = target: T1, Cynomolgus monkey glycophorin A on …; assay: partition to Cyno RBC, human HemA plasma, 15 min;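 also: FVIII fusion spiked at 1 IU/mL into RBC suspension at whole-blood density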
[12] = target: T2, human glycophorin A on human red blood …; assay: partition to human RBC, human HemA plasma, 30 min
[13] = target: T1, Cynomolgus monkey glycophorin A on …; assay: partition to Cyno RBC, human HemA plasma, 120 min;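 also: FVIII fusion spiked at 1 IU/mL into RBC suspension at whole-blood density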

B1: TPP-9976 FVIII-scFv fusion protein (other)
chain: ATRRYYLGAVELSWDYMQSDLGELPVDARFPPRVPKSFPFNTSVVYKKTLFVEFTDHLFNIAKPRPPWMGLLGPTIQAEVYDTVVITLKNMASHPVSLHAVGVSYWKASEGAEYDDQTSQREKEDDKVFPGGSHTYVWQVLKENGPMASDPLCLTYSYLSHVDLVKDLNSGLIGALLVCREGSLAKEKTQTLHKFILLFAVFDEGKSWHSETKNSLMQDRDAASARAWPKMHTVNGYVNRSLPGLIGCHRKSVYWHVIGMGTTPEVHSIFLEGHTFLVRNHRQASLEISPITFLTAQTLLMDLGQFLLFCHISSHQHDGMEAYVKVDSCPEEPQLRMKNNEEAEDYDDDLTDSEMDVVRFDDDNSPSFIQIRSVAKKHPKTWVHYIAAEEEDWDYAPLVLAPDDRSYKSQYLNNGPQRIGRKYKKVRFMAYTDETFKTREAIQHESGILGPLLYGEVGDTLLIIFKNQASRPYNIYPHGITDVRPLYSRRLPKGVKHLKDFPILPGEIFKYKWTVTVEDGPTKSDPRCLTRYYSSFVNMERDLASGLIGPLLICYKESVDQRGNQIMSDKRNVILFSVFDENRSWYLTENIQRFLPNPAGVQLEDPEFQASNIMHSINGYVFDSLQLSVCLHEVAYWYILSIGAQTDFLSVFFSGYTFKHKMVYEDTLTLFPFSGETVFMSMENPGLWILGCHNSDFRNRGMTALLKVSSCDKNTGDYYEDSYEDISAYLLSKNNAIEPRSFSQNGGGGSTGGTGGSSGGGTGSGGGGTGGSGGTDIQLTQSPSFLSASVGDRVTITCRASSSVRYIYWFQQKPGKAPKLLIYATSFRQSGVPSRFSGSGSGTEYTLTISSLQPEDFATYYCHQRNSFPYTFGQGTKLEIKGGGGSGGGGSGGGGSGGGGSEVQLVQSGAEVKKPGASVKVSCKASGYTFTTYAIHWVRQAPGQGLEWMGYINPSSGYTRYNPKFKGRVTMTRDKSTSTAYMELRSLRSDDTAVYYCWTGTRDYWGQGTTVTVSSGGGGDIQLTQSPSFLSASVGDRVTITCRASSSVRYIYWFQQKPGKAPKLLIYATSFRQSGVPSRFSGSGSGTEYTLTISSLQPEDFATYYCHQRNSFPYTFGQGTKLEIKGGGGSGGGGSGGGGSGGGGSEVQLVQSGAEVKKPGASVKVSCKASGYTFTTYAIHWVRQAPGQGLEWMGYINPSSGYTRYNPKFKGRVTMTRDKSTSTAYMELRSLRSDDTAVYYCWTGTRDYWGQGTTVTVSSGGGGDENQSPRSFQKKTRHYFIAAVERLWDYGMSSSPHVLRNRAQSGSVPQFKKVVFQEFTDGSFTQPLYRGELNEHLGLLGPYIRAEVEDNIMVTFRNQASRPYSFYSSLISYEEDQRQGAEPRKNFVKPNETKTYFWKVQHHMAPTKDEFDCKAWAYFSDVDLEKDVHSGLIGPLLVCHTNTLNPAHGRQVTVQEFALFFTIFDETKSWYFTENMERNCRAPCNIQMEDPTFKENYRFHAINGYIMDTLPGLVMAQDQRIRWYLLSMGSNENIHSIHFSGHVFTVRKKEEYKMALYNLYPGVFETVEMLPSKAGIWRVECLIGEHLHAGMSTLFLVYSNKCQTPLGMASGHIRDFQITASGQYGQWAPKLARLHYSGSINAWSTKEPFSWIKVDLLAPMIIHGIKTQGARQKFSSLYISQFIIMYSLDGKKWQTYRGNSTGTLMVFFGNVDSSGIKHNIFNPPIIARYIRLHPTHYSIRSTLRMELMGCDLNSCSMPLGMESKAISDAQITASSYFTNMFATWSPSKARLHLQGRSNAWRPQVNNPKEWLQVDFQKTMKVTGVTTQGVKSLLTSMYVKEFLISSSQDGHQWTLFFQNGKVKVFQGNQDSFTPVVNSLDPPLLTRYLRIHPQSWVHQIALRMEVLGCEAQDLY
notes: also called PPB 7998
- % bound to Cyno RBC [1]: 78.1%
- percentage bound to human RBC [2]: 95.2%
- % bound to Cyno RBC [3]: 53.4%
- percentage bound to human RBC [4]: 95.2%
- % bound to Cyno RBC [5]: 84.5%
- percentage bound to human RBC [6]: 74.3%
- percentage bound to human RBC [7]: 86.6%
- percentage bound to human RBC [8]: 55.2%
- % bound to Cyno RBC [9]: 65.7%
- percentage bound to human RBC [10]: 93.5%
- % bound to Cyno RBC [11]: 75.6%
- percentage bound to human RBC [12]: 90.4%
- % bound to Cyno RBC [13]: 86.8%
